Assay: label from the status in PepcDB records

| Sequence | protein production |
| --- | --- |
| MSQALPYRPDIDTLRAAAVLSVIVFHIEKDWLPGGFLGVDIFFVISGFLMTTILHREMSGGGGRFSLKAFYIRRIKRILPAFFAVLAATLAGGFFLFTKDDFFLLWKSALTALGFASNLYFARGKDYFDPAQEEKPLLHIWSLSVEEQFYFVFPILLLLVARKSLRVQFGFLAALCALSLAASFIPSALDKYYLPHLRACELLIGSLTAVWMRCRQPAVGRRCAAVGALFAVCILSTCLFSYSEQTAYFPGPAALIPCLAVAALIYFNHYEHPLKKFFQSKITVAAGLISYSLYLWHWPILAFMRYIGPDNLPPYSPAAAVVLILLLSLFSYHCIEKPFKKWQGSFAQSVLWIYALPMLILGAGSFFAMRLPFMAQYDRLGLTRSNTSCHNNTGKQCLWGDTEKQPELLVLGDSHADHYKTFFDAVGKKEKWSATMVSADACAYVEGYASRVFQNWAACRAVYRYAEEHLPRYSKVVLAMRWGSQMPENSRSLAYDAGFFQKFDRMLHKLSSEKQAVYLMADNLASSYNVQRAYILSSRIPGYRQALRPDDESTLKANARIRELAAKYPNVYIIDAAAYIPADFQIGGLPVYSDKDHINPYGGTELAKRFSEKQRFLDTRHNH | failed |
| MATIDLVRHAEPDITIHDDFLRPLTSAGQRQTQQLVDSLHQYPYTAFFSSPLKRAVDTITPIADDHGLPVQKNELLVERKMPAWLPNFSDYVNQQWQDLTFFEKPGESIHQVQERYLSFLYGLPSSAFVAVGSHGTAISSLVEAAIPGIGYHFFSKLGYAAVTRIEMHAGNMVHLAVWEPKSKTFKVLK | failed |
| MQLHELVNTLGQDLQRRYGEKVHKLTLHGGFSCPNRDGTIGRGGCTFCNVASFADEEVQIKSIHEQLKDRAGEIHRAKKYLAYFQAYTSTYAEVQVLKNMYEEALKAADIVGLCVGTRPDCVPDSVLDLLSDYVNQGYEIWLELGLQTANNDTLKRINRGHDFECYAEITQRARALGIKVCTHLIVGLPKETRDDNIETLQKVLAVGTDGIKLHGLHIVEGSTMAKAWRAGRLEAPGLEEYVAIASEMIRMTPADVVFHRVSSAARRPTLLSPLWCENRWLAMTEIGRALNKDGAQGSLIGKPFIYTKPELKADCSINN | failed |
| MSQVSTEFIPTRIAILTVSNRRGEEDDTSGHYLRDSAQEAGHHVVDKAIVKENRYAIRAQVSAWIASDDVQVVLITGGTGLTEGDQAPEALLPLFDREVEGFGEVFRMLSFEEIGTSTLQSRAVAGVANKTLIFAMPGSTKACRTAWENIIAPQLDARTRPCNFHPHLKK | not failed |
| MFNNKQKQLVIILISLLLTFTSQASLASDTTILNEIINPQLIHIYEWETLSVYEKENVSQKPANWDSAESFYGSTRLSLLGEERFYRAKFTIGWHHRTRNLAISVGPLKGTDEVYINGFRVDDSGSGDYDLFFQNSYRVYRLPRNKTWFSWFNYTKENELLIKLSSSKRGQVLDSDYVEIGDYETLALKSRDFDSTIKTSQGSAIALLFMLILFIIFLHVNQYNKKSNTLFGFFIFYLSLSIASTSLFLNGPEYDGELLLSLSACLDLVSLVVFIKIVSDKFDLNISHYKRNEKSIKIFGTVSVLCILIFSDIFFAQKWFNLIIYIVMLLVVISTIHQLVIGRNIGGANYSIVSALMIMFLGVAFNGLWGGNSWPISPYHIGAILSSIFLLYSIAQDFKKMTLSMHAMSSRLVNIREIERARLTRDIHDGVGQGLATIRLFITMNINNFEPQLGISLKNEVDQTSNTLKSVIRNLKPIEMDDGNPSEAIIELARHLCEIAQIEMKVIHSDKADMNTENAYQLYRIGQEALNNSIKHSCCTLITIDIQRDRDRLIMSISDNGKGIKKQVENLGYGLSSMQERALLIGGQLRINNAIDSGVQVFLEVPIND | failed |
| MNVSRLCSLYPTLLIPLLFVAGCGLFASSTAPVSRSPESMAREAEEFQSSRRFEDAIAQWRKVKESYISPELITLAEIKIADAQFDSGNYIEAAASYEEFRKLHPNHEKSAYALYRQGLSYFNQIHGFDTDQTPVSNTVTIFESFLRLYPQSEHAEEVRNKLDAARQNQVQYEIYVGQFYYRTEKYTSAIKRLEDALKRYPRSPLHDETLYYLGKAYIKAGDKAGGREAFQRLFNEFRTSKYVDEARSFLDKNF | failed |
| MEVSRALLFELGVLLAVLAVLGAVARRFALSPIPVYLLAGLSLGNGGILGVAAAGEFIATGAPIGVVLLLLALGLEFSATEFASSLRHHLPSAGVDIVLNATPGAVAGWLLGLDGVAILGLAGVTYISSSGVIARLLEDLRRLGNRETPAVLSVLVLEDFAMAAYLPLFAVLATDGSWLEAVVGMTVAIAALLGAFAASYRWGHHVGRLVTHPDSEQLLLRVLGITLIVAAVAESLHASAAVGAFLVGLTLTGETADRARMVLTPLRDLFATIFFLGIGLSVDPGKLVSMLPVALALAAVTAATKVATGMFAARREGVARRGQLRAGTALVARGEFSLIIIGLAGASIPGVAALATAYVFVMAIVGPILARYTGGGLPAAAVASN | failed |
| MISRRTFALAAVASVLLGGTFVGAKAGLSYLPPLLFVALRFDIAAVVLLGYVVVTRSRDELLPRTRGDVLGILSTGLFALGLANALIFVGQQSATSAVAAIIFSLNPILTPVFAAILLSDERLSARGGLGMVIGLLGVGLVVSPDPAMLLSGGIGKLILFAGAASAALGSVLIRWSGGGLSSTVRTAWALPVAAALCHALSIGMGESAATAVWSPTAIAALLYVGIFAGAIAYIAYFGLLDVTGAIQANLIFYVVPVVSTLGGWALLGEAITPTAVAGFLTIFTGFVVLGSESVDIRALLPATTDEGDTVSESLGIADEQRGFESD | failed |
| MVPDWEEVLGLWRAGRYYEVHEVLEPYWLKATGEERRLLQGVILLAAALHQRRLGRPGLRNLRKAEARLEGLPCPLMGLDWRSLLQEARRRLGA | not failed |
| MSTRSMSAPANATVADVAAGDAIRSLDPSIRAVWAIKMAAFSMFLFLPALFYDLTHLFSPDSWLPFGVLSGTVLVGGVLYCVAWPRLRYRAWGFVLRPEELYMEHGVLQHVRTIVPLRRIQHVDVSQDLIEREFALGRLVVHTAGSRSSDVVIPGLPLSEAETIRDKIKRFILEDPLTEEPV | failed |
| MAIEPSLISSLTWFAHVARHRSFTKAASEMGVTRAALSQHVKGLEKQLQVRLLNRTTRNMSLTEEGQRLLDTLHPSLSNIEQTLNSLNDLHIEPAGLIRISVSRTAARLLIEPHLGEFLSRYPKIRLELIMDDGLTNIVAEGMDAGIRLGVSLDEHMVAIPITPNLTNAIVGSPDYFKRYGKPETPNDLEHHNCLAYRFTSSGTLDHWSLTSPDVDKHTVIFEPKGNAVFNDDYSMLQAAMQGVGLIKHIDLWVLKYLEEGKLERVFVDWCKPFPGFYLYIPSRENMPKKIRVLMDFLIEKRAEL | failed |
| MSKQAVYKIELKIFGYFILILMLSTITVILMLIVKNALEEVLIRYNENTLMTAKFLFCDVKKFSIVMYFFVFVIWSHLLLKRKVQYFINLSESTSEIAKGNFKVIIPVKREDEFGNLAKGINEIVEKFNFILKKEKEIEKTKIDLITNVSHDLRTPLTSILGYLELVENDQYKDEVALWYYIDIAYNKTKRLKVLIDDLFQLTTLNEHSMKLCKKEINIAELLKQLIGEYMLNFQKAGIRCRLKLTDEKLYVLGDAVLLIRAFENIIINCIKYSKTSEIMDVSVQRKGDMAVLNFINYGEPIPAIDIPYIFQRFYRVDKSRSDKLGGSGLGLAIAKNIIDITGGNIEVESDTTRTNFKIVLPCYGK | failed |
| MSLVKIVRIETFPLFHRLEKPYGDANGFKRYRTCYLIRIITESGIDGWGECVDWLPALHVGFTKRIIPFLLGKQAGSRLSLVRTIQKWHQRAASAVSMALTEIAAKAADCSVCELWGGRYREEIPVYASFQSYSDSPQWISRSVSNVEAQLKKGFEQIKVKIGGTSFKEDVRHINALQHTAGSSITMILDANQSYDAAAAFKWERYFSEWTNIGWLEEPLPFDQPQDYAMLRSRLSVPVAGGENMKGPAQYVPLLSQRCLDIIQPDVMHVNGIDEFRDCLQLARYFGVRASAHAYDGSLSRLYALFAQACLPPWSKMKNDHIEPIEWDVMENPFTDLVSLQPSKGMVHIPKGKGIGTEINMEIVNRYKWDGSAYEGHHHHHH | not failed |
| MARPAKLAKISDLFCCTTCPAIDDTCVAPCEGEAPQPFQLHDIPCPPGLHTNLIEPPDMTQNIYDDPIFFQAYSQMGRSLGGLDAAPEWPALQALLPPMNGLRVLDLGCGYGWFSRWASEHGARQVVGLDVSQKMLATARATTSAPNVQYQQEDLEQLRLPACSFDLAYSSLALHYIKDLPGLFAQVYAALVPGARLVFSIEHPIFMAPRNPGWQVDAQGRQSWPVDSYQQEGERVTDWLAEGVIKQHRTLGTLLNTLIDTGFNLRHVQEWGPTAQQIEDLPALAEERERPMLLLVAAQR | failed |

— a protein production outcome set (Wang et al. 2014)
